Tests used:
Conditions in all cases: both partners purified
[1] = biological target: T1, native authentic human α2-macroglobulin (human, UniProt P01023 24-1474, thioester bond intact (native form)); experiment: SPR; as a1, affinity analysis: steady-state responses (Req) against analyte concentration, 1:1 model
T1 construct: human α2-macroglobulin, UniProt P01023, 1,474-residue precursor; as secreted it lacks the signal peptide (recombinant constructs begin at S24); Tetramer (680.6 kDa by SEC-MALLS); glycosylated; also called hα2M; native hα2M; source: purified from human blood plasma of individual donors (PEG 4,000 precipitation, zinc-chelating resin, IEC, SEC)
T1 sequence (looked up): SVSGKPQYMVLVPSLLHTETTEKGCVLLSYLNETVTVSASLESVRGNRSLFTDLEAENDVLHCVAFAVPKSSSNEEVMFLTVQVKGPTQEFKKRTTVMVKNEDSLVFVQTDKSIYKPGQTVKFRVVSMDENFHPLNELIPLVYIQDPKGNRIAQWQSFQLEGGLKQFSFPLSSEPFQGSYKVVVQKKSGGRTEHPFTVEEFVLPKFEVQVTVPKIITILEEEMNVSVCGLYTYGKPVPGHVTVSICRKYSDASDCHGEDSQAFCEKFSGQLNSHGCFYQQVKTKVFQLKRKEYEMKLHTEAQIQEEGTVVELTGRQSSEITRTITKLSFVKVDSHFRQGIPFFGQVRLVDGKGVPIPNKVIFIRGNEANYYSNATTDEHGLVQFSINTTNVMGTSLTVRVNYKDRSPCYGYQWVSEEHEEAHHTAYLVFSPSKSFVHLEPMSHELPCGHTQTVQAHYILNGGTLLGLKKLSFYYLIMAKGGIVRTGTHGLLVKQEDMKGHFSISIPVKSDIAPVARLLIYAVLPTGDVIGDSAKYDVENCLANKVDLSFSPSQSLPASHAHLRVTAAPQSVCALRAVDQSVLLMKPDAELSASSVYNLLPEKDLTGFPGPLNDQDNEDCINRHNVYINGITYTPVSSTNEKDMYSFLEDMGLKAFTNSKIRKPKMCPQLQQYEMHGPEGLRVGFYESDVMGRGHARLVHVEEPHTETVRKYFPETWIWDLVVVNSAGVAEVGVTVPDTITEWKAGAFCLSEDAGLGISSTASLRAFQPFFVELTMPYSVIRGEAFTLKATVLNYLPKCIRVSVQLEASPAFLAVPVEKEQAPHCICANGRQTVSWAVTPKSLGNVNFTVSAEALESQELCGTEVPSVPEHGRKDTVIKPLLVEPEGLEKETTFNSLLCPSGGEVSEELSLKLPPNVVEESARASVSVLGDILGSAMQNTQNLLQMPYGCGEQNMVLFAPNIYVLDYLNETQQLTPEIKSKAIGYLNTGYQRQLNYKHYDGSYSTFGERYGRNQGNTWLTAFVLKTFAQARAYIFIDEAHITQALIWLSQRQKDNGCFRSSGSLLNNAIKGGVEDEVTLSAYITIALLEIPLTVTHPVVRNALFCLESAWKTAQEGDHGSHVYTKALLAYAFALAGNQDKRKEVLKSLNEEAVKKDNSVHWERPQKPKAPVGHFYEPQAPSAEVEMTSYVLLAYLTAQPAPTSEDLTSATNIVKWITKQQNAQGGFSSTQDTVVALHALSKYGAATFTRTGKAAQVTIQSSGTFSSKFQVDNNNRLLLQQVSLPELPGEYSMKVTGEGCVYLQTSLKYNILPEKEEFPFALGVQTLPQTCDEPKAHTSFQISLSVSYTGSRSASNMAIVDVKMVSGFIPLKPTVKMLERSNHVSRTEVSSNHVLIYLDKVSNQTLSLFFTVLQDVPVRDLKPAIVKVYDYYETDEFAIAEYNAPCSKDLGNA

[2] = biological target: T2, methylamine-induced authentic human α2-macroglobulin (human, UniProt P01023 24-1474, thioester bond opened by methylamine, producing a free cysteine); experiment: as above
T2 construct: human α2-macroglobulin, UniProt P01023; plasma protein as m1, induced form; Tetramer (684.1 kDa by SEC-MALLS); also called induced hα2M; induced authentic hα2M
T2 sequence (looked up): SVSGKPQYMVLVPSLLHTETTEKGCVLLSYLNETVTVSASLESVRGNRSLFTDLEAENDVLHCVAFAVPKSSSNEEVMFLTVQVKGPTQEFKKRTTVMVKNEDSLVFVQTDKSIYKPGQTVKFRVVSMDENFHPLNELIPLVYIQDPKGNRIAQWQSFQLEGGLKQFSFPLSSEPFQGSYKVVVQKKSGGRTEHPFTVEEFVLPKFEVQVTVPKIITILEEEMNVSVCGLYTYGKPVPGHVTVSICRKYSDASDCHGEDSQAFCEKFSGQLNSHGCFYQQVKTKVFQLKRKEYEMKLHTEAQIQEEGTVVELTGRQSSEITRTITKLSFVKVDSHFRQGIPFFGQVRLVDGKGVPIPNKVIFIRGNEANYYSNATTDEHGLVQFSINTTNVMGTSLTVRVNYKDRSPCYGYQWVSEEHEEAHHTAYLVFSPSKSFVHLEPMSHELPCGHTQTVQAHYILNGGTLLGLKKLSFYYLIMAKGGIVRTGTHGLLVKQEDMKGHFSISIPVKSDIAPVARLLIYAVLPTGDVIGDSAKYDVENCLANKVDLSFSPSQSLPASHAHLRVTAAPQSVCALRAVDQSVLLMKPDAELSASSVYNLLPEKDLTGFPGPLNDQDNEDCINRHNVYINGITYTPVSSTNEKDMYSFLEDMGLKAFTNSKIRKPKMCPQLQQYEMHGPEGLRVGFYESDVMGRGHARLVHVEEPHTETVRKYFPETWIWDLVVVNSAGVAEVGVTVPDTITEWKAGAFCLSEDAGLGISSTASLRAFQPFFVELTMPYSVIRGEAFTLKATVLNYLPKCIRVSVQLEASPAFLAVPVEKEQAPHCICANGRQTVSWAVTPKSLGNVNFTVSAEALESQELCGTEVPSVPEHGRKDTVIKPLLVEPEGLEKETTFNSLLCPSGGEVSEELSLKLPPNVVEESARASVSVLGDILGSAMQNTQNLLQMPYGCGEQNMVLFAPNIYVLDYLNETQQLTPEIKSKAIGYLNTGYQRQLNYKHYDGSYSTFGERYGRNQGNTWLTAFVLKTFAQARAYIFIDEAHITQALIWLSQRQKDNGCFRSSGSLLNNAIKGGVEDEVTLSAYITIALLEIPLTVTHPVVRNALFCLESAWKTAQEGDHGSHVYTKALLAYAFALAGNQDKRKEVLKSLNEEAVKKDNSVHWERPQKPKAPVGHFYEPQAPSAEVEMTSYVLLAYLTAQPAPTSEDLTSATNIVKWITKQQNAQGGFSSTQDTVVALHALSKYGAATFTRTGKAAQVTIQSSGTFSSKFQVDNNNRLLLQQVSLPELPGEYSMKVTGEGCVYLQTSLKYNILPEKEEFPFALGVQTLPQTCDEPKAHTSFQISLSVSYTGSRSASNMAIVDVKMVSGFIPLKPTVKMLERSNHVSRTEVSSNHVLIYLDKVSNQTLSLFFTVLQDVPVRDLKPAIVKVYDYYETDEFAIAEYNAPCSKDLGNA

[3] = biological target: T1, native authentic human α2-macroglobulin; experiment: SPR; Strep-tagged GRAB (9.7 nM) captured on Streptactin XT on a CM5 chip; analytes injected in multicycle runs (4–600 nM authentic hα2M, 75–1,200 nM N-hα2M and C-hα2M); HBNS (10 mM HEPES, 150 mM sodium chloride, pH 7.4), 37 °C; kinetic fit, 1:1 Langmuir model
[4] = biological target: T1, native authentic human α2-macroglobulin; experiment: SEC-MALS; SEC-MALLS, Superose 6 10/300, buffer J (20 mM sodium phosphate, 150 mM sodium chloride, pH 7.4), 25 °C; GRAB to authentic hα2M at a molar ratio of 4:1; triplicate
[5] = biological target: T2, methylamine-induced authentic human …; experiment: as above

| Binder | Kd [1] [nM] | Kd [2] [nM] | Kd [3] [nM] | koff [3] [s⁻¹] | kon [3] [M⁻¹ s⁻¹] | stoichiometry N [4] [GRAB per hα2M tetramer] | stoichiometry N [5] [GRAB per hα2M tetramer] |
| --- | --- | --- | --- | --- | --- | --- | --- |
| Strep-tagged G-related α2M-binding protein (GRAB), V34-N181 (domain or fragment, residues left at the N-terminus after TEV cleavage, from the cloning strategy; also called Strep-tagged GRAB; pCri-H6-TEV-GRAB-STREP; source: E. coli BL21 (DE3), purified (Streptactin XT, IEC, SEC); not shown: His6, N-terminal, cleaved; Strep-tag, C-terminal, kept) GAMVDSPIEQPRIIPNGGTLTNLLGNAPEKLALRNEERAIDELKKQAIEDKEATTAIEAASSDALEALADQTDALQSEEAAVVKADNAASDALEALADQTDALQSEEAEVVQSDNAASDAWEKAATPIALDVKKTKDTKPVVKKEERQNVN | 34.5 | 94.6 | 14.3 | 0.0019 | 132000 | – | – |
| G-related α2M-binding protein (GRAB), V34-N181, untagged (domain or fragment, residues left at the N-terminus after TEV cleavage, from the cloning strategy; the theoretical mass of 15.8 kDa that it compares with fits the untagged form (surmise); also called pCri-H6-TEV-GRAB; source: E. coli BL21 (DE3), purified (Ni-NTA, TEV cleavage, reverse Ni-NTA, IEC, SEC); not shown: His6, N-terminal, cleaved) GAMVDSPIEQPRIIPNGGTLTNLLGNAPEKLALRNEERAIDELKKQAIEDKEATTAIEAASSDALEALADQTDALQSEEAAVVKADNAASDALEALADQTDALQSEEAEVVQSDNAASDAWEKAATPIALDVKKTKDTKPVVKKEERQNVN | – | – | – | – | – | 1.7 | 2 |
